Data: publication PMC9150817
Read-outs that look alike come from different tables or passages of the source.

What was measured:
[1] = molecular target: T1, Hfq wild type (recombinant, full-length, non-tagged) (Escherichia coli, UniProt P0A6X3 1-102); experiment: 2D-PAGE/immunoblot of reconstituted complex
[2] = molecular target: T1, Hfq wild type (recombinant, …); experiment: 2D-PAGE/immunoblot of reconstituted complex; remark: listed apart in the source

T1 sequence (P0A6X3 whole entry): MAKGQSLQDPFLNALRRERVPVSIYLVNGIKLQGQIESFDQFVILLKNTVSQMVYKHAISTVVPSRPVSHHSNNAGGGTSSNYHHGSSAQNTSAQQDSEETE

Binder | binding result [1] | binding result [2]
AAAAAAAAAAAAAAAAAAAA (ssRNA) [(rA)20] | binds | 
AAAAA (ssRNA) [(rA)5] |  | binds
UUUUUUUUUUUUUUUUUUUU (ssRNA) [(U)20] | binds | 
